Measurements reported in article PMC5617326 (ACS Catalysis, 2017).

What was measured:
[1] = molecular target: the molecule itself; assay: crystal structure; bCinS co-crystallised with 2 mM FNPP (Morpheus II A4, pH 6.5), also soaked with 2 mM FGPP; space group P1, two molecules in the asymmetric unit; interface analysed with PISA
[2] = molecular target: the molecule itself; assay: crystal structure; bLinS apo (25% w/v PEG3350) and co-crystallised with 2 mM FGPP (Morpheus D7, pH 7.5); space group I4, two molecules in the asymmetric unit

Row | Protein | stoichiometry N [1] | binding result [2]
1 | 1,8-cineole synthase from Streptomyces clavuligerus (enzyme, Streptomyces clavuligerus ATCC 27064, UniProt B5GMG2 1-330, looked up) MPAGHEEFDIPFPSRVNPFHARAEDRHVAWMRAMGLITGDAAEATYRRWSPAKVGARWFYLAQGEDLDLGCDIFGWFFAYDDHFDGPTGTDPRQTAAFVNRTVAMLDPRADPTGEHPLNIAFHDLWQRESAPMSPLWQRRAVDHWTQYLTAHITEATNRTRHTSPTIADYLELRHRTGFMPPLLDLIERVWRAEIPAPVYTTPEVQTLLHTTNQNINIVNDVLSLEKEEAHGDPHNLVLVIQHERQSTRQQALATARRMIDEWTDTFIRTEPRLPALCGRLGIPLADRTSLYTAVEGMRAAIRGNYDWCAETNRYAVHRPTGTGRATTPW | 2 | –
2 | linalool synthase from Streptomyces clavuligerus (enzyme, Streptomyces clavuligerus ATCC 27064, UniProt D5SL78 1-329, looked up) MQEFEFAVPAPSRVSPDLARARARHLDWVHAMDLVRGEEARRRYEFSCVADIGAYGYPHATGADLDLCVDVLGWTFLFDDQFDAGDGRERDALAVCAELTDLLWKGTAATAASPPIVVAFSDCWERMRAGMSDAWRRRTVHEWVDYLAGWPTKLADRAHGAVLDPAAHLRARHRTICCRPLFALAERVGGYEVPRRAWHSSRLDGMRFTTSDAVIGMNELHSFEKDRAQGHANLVLSLVHHGGLTGPEAVTRVCDLVQGSIESFLRLRSGLPELGRALGVEGAVLDRYADALSAFCRGYHDWGRGASRYTTRDHPGDLGLENLVARSSG | – | binds
